Measured values as given in publication doi:10.1101/2022.05.20.492803.

Molecular target: GST protein (free GST, cleaved from GST-tagged proteins)
Test: SAXS

GST protein (free GST, cleaved from GST-tagged proteins) (enzyme)
stoichiometry N: 2
